Measured values: patent publication US6525022B1, “Receptor specific atrial natriuretic peptides” (Genentech, Inc., priority 1993, dated 2003)
Like-named read-outs stand apart in the source and are kept apart here. Bridges are numbered along the chain shown (N, C = ends). Primed or numbered codes have the meaning given here. Where no end group is shown, it is not given here. [ ]: non-standard residue; d: D form. Phg′ = phenylglycine, D or L; Mpa = O=C(O)CCS

Tests used:
[1] = molecular target: T1, human natriuretic peptide receptor-A (human), P16066; experiment: competition binding vs 125I-rat ANP, membranes; details: chains peptide; modification not given
T1 chain: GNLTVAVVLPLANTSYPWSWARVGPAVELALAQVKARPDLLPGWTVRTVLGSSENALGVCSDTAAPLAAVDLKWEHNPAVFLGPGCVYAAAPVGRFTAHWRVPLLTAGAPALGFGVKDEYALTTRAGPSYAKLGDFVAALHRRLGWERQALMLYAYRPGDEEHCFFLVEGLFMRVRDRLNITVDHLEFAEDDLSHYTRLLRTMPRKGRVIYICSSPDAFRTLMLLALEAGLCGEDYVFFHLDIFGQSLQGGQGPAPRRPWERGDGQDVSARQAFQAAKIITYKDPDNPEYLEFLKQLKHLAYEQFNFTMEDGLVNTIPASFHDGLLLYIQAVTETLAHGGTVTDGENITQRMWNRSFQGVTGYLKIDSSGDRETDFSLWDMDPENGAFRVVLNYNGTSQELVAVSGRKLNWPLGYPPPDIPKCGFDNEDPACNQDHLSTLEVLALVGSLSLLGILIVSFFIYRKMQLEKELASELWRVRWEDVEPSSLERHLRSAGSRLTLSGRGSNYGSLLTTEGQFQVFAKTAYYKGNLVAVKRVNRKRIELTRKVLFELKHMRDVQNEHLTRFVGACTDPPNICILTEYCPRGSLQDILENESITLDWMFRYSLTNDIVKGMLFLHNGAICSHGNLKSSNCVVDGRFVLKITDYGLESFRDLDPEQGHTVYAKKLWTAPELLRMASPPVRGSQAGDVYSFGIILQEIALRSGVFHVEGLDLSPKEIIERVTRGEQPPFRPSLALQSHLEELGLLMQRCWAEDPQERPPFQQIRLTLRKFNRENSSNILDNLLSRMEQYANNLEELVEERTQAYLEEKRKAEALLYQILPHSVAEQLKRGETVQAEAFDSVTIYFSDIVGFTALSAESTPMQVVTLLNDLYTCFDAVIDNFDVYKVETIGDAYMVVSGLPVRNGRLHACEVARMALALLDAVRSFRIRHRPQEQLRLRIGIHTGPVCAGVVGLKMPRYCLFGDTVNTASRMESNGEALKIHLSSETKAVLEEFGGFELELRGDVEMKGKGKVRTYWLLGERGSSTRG

[2] = molecular target: T2, human natriuretic peptide clearance receptor-C (human), P17342; experiment: competition binding, membranes; details: chains peptide; modification not given
T2 chain: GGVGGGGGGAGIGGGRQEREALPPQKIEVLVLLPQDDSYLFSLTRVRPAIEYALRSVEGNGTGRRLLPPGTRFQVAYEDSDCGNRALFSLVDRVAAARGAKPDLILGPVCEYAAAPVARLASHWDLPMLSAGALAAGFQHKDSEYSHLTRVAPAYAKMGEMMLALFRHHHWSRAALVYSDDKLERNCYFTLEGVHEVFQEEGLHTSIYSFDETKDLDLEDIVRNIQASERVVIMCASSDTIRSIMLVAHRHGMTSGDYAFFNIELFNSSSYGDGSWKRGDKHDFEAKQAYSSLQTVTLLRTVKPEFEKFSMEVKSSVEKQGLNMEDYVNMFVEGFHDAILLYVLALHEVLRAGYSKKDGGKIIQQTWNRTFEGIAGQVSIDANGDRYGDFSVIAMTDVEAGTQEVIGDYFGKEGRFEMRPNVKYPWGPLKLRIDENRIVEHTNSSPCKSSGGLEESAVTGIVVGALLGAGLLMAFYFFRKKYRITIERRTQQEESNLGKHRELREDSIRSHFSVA

[3] = molecular target: T3, human natriuretic peptide receptor-A (human, UniProt P16066 33-1061); experiment: competition binding, Table I; tracer and receptor format not given
T3 construct: whole, on cells; also called hNPR-A; human NPR-A
T3 sequence (looked up): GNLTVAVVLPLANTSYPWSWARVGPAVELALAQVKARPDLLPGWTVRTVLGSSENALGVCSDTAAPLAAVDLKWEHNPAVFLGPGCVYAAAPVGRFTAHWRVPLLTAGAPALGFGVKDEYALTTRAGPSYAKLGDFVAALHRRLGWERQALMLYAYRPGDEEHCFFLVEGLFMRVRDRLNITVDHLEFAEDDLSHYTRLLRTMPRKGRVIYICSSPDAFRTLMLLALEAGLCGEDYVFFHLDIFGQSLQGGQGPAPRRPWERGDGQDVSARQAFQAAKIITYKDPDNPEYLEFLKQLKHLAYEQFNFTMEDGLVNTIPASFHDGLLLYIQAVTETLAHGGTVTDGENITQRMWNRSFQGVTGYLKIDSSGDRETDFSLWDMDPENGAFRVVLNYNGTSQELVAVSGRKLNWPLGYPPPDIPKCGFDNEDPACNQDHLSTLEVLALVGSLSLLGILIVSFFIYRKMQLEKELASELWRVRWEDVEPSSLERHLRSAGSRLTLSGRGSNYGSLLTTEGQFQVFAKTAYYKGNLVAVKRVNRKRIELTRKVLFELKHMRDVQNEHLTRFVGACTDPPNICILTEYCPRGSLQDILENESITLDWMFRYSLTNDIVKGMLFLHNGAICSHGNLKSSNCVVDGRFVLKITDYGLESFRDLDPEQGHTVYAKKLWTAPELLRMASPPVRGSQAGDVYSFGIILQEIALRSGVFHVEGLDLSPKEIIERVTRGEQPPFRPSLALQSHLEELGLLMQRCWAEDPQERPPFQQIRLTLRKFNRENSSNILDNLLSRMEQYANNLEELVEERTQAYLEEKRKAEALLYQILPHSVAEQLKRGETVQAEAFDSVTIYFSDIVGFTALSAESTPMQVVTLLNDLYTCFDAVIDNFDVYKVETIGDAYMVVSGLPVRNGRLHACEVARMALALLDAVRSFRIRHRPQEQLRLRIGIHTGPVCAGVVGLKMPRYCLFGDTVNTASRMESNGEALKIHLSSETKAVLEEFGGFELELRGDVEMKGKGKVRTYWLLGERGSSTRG

[4] = molecular target: T4, human natriuretic peptide clearance receptor-C (human, UniProt P17342 27-541); experiment: as above
T4 construct: whole, on cells; also called hNPR-C; human NPR-C
T4 sequence (looked up): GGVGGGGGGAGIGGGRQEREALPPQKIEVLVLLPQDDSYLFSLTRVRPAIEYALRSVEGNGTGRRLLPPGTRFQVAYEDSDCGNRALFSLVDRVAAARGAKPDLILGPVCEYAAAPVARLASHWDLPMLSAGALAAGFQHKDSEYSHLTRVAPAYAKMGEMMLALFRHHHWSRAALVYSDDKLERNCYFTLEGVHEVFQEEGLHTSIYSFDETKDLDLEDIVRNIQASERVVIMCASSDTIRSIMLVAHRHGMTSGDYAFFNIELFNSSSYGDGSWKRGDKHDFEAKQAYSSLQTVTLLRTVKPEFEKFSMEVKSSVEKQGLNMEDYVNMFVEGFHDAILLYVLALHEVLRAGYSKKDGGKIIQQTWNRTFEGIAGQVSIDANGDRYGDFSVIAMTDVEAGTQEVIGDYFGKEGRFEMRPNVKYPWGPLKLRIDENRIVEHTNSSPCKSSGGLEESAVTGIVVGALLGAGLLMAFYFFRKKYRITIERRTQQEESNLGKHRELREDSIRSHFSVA

[5] = molecular target: T2, human natriuretic peptide clearance …; experiment: as above
[6] = molecular target: T5, human neutral endopeptidase 24.11 (human, UniProt P08473 2-750, limits assumed); experiment: cell-based or functional assay
[7] = molecular target: T5, human neutral endopeptidase 24.11; experiment: cell-based or functional assay; remark: listed apart in the source
[8] = molecular target: T1, human natriuretic peptide receptor-A …; experiment: competition binding, Table I; tracer and receptor format not given
[9] = molecular target: T6, human neutral endopeptidase 24.11 (human), P08473; experiment: cell-based or functional assay
T6 chain: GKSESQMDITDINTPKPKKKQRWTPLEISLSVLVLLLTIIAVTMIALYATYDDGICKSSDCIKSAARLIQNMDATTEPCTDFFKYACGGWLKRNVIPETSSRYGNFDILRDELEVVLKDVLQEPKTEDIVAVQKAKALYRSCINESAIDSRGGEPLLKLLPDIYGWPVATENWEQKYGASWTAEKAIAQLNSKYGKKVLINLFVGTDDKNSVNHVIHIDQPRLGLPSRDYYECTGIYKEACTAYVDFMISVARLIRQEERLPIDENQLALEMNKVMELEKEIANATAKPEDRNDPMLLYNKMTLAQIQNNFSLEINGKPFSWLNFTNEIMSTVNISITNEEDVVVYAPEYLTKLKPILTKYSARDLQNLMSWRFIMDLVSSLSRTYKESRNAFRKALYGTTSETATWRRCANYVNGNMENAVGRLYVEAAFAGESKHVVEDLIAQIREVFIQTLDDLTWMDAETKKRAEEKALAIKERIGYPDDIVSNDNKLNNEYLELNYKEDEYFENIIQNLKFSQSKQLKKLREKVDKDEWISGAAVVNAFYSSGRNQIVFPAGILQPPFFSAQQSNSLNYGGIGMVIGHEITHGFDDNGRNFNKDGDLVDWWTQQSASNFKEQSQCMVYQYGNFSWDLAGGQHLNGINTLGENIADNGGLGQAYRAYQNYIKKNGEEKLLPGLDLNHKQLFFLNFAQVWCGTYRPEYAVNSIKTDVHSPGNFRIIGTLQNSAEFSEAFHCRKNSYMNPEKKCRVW

SLRRSSCFGGRIDRIREASGLGCNSFRY [ANF 99] gave an IC50 [1] of 0.145 nM and an IC50 [2] of 121 nM.

[Mpa]F[dT]GSIDRIRAQSGLGCNSFRY (disulfide 1-17) [ANF 80] was tested, and the IC50 [3] was 0.423 nM and the IC50 [4] was 739 nM.

SLRRSSC[Phg′]TGSIDRIRAQSGLGCNSFRY (disulfide 7-23; also: Phg configuration D or L not given here) [ANF 100-1] showed an IC50 [3] of 0.187 nM and an IC50 [4] of 3230 nM.

B1: ANF 81 (peptide)
peptide: [Mpa]F[dA]GSIDRIRAQSGLGCNSFRY
modifications: disulfide 1-17; not fully specified; printed as Mpa-Phe-(D-Ala)-Gly-Ser-Ile-Asp-Arg-Ile-Arg-Ala-Gln-Ser-Gly-Leu-Gly-Cys-Asn-Ser-Phe-Arg-Tyr
For B1, the IC50 [3] was 1.4 nM and the IC50 [4] was 3860 nM.

Work on SLRRSSCFAGSIDRIRAQSGLGCNSFRY (modifications not checked) [ANF 78] yielded an IC50 [5] of 8.64 nM.

B2: ANF 24 (peptide)
peptide: SLRRSSCFGGRIDRIRAQSGLGCNSFRY
modifications: disulfide 7-23
notes: Synthetic; Cys7-Cys23 disulfide; also called hANF(1-28) M12I, G16R
With B2 the IC50 [4] was 5.64 nM and the “Half-Life” value [6] was 10 h.

B3: ANF 50 (peptide)
peptide: SLRRSSCFTGSMDRIGAQSGLGCNSFRY
modifications: disulfide 7-23
notes: Cys7-Cys23 disulfide; also called hANF(1-28) G9T, R11S
B3 was tested, and the IC50 [3] was 0.57 nM, the IC50 [4] was 251 nM and the “Half-Life” value [6] was 1.55 h.

For SLRRSSCFGGRIDSIRAQSGLGCNSFRY (disulfide 7-23, also called hANF(1-28) M12I, R14S, G16R) [ANF 25], the IC50 [3] was 0.056 nM, the IC50 [4] was 3.31 nM and the “Half-Life” value [7] was 3.32 h.

In the case of TAPRSLRRSSCFTGSIDRIRAQSGLGCNSFRY (modifications not checked) [ANF 76], the IC50 [8] is reported as 0.0089 nM and the Half-Life [9] is reported as 23.5 h.

With TAPRSLRRSSCFGGRIDRIRAQSGLGCNSFRY (disulfide 11-27) [ANF 23] the “Half-Life” value [6] was 12.3 h.

TAPRSLRRSSCFGGRMDRIGAQSGLGCNSFRY [urodilatin] was tested, and the “Half-Life” value [6] was 31 h and the “Half-Life” value [7] was 27.1 h.
